What is called Kd is the constant that tells how readily two partners part at equilibrium. High values mean weaker binding, low ones tighter binding.

Holding throughout (assay): smFRET
For series [1], the target named is T1, Taq MutS(C42A,T469C)-Cy3 (Thermus aquaticus, UniProt Q56215 1-811, C42A;T469C).
T1 sequence: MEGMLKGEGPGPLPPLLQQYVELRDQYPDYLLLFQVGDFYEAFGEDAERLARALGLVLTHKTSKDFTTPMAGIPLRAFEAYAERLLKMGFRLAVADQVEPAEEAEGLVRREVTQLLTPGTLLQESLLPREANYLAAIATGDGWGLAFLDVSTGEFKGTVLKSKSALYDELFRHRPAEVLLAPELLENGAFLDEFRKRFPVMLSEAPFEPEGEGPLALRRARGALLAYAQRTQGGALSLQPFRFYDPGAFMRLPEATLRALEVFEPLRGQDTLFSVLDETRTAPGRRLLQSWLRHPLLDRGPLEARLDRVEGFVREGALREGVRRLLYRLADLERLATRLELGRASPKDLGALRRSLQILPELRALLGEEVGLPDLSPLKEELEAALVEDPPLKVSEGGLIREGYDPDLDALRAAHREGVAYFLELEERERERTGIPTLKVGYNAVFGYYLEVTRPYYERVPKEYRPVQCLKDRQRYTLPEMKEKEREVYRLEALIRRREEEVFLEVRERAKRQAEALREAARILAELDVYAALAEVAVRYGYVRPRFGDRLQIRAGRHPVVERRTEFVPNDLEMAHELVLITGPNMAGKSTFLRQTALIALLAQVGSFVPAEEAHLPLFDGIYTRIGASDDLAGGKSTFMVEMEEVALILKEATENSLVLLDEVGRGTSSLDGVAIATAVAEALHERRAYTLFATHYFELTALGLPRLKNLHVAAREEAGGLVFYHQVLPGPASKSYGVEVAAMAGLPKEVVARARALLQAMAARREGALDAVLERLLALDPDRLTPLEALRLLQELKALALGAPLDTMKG

Series [2] addresses T1, Taq MutS(C42A,T469C)-Cy3. The source holds these as a separate data set.
Series [3] addresses T1, Taq MutS(C42A,T469C)-Cy3. This is another data set of the same source.
The target of series [4] is T1, Taq MutS(C42A,T469C)-Cy3. This is another data set of the same source.

Where two headings read alike, the source gives them in different places.

B1: 100 bp duplex (dsDNA)
DNA 1: GTTACCGATACGATACGAATAGGCATATCTGCACGTTTCTCACGAGGCGCCGCTAGACTGATCTGGAGCTTAATTGCCTGCCGGAGCTAAAGACGTTCCA
DNA 2: TGGAACGTCTTTAGCTCCGGCAGGCAATTAAGCTCCAGATCAGTCTAGCGGCGCCTCGTGAGAAACGTGCAGATATGCCTATTCGTATCGTATCGGTAAC
modifications: amino-C6 dT (Cy5 site)
As to B1, in series [1], the binding result is recorded as “binds”.

B2: 100 bp +dT mismatch DNA (100/101 nt) (dsDNA)
DNA 1: B1 DNA 1
DNA 2: TGGAACGTCTTTAGCTCCGGCAGGCAATTAAGCTCCAGATCAGTCTAGCGTGCGCCTCGTGAGAAACGTGCAGATATGCCTATTCGTATCGTATCGGTAAC
modifications: amino-C6 dT (Cy5 site)
Consider B2, for which the binding result in series [1] is “binds”.

B3: 74 bp duplex, both ends blocked (dsDNA)
DNA 1: ATTCAGCTGTACCCAATTCACTCTACGACGAGGCGTCGCTAGCGTCGCATCCTGCTGTAAGTTTCATGTCCACC
DNA 2: GGTGGACATGAAACTTACAGCAGGATGCGACGCTAGCGACGCCTCGTCGTAGAGTGAATTGGGTACAGCTGAAT
modifications: amino-C6 dT (Cy5 site)
Molecule B3 returned a Kd in series [2] of 128 ± 12 nM.

B4: +dT mismatch DNA (74/75 nt), both ends blocked (dsDNA)
DNA 1: B3 DNA 1
DNA 2: GGTGGACATGAAACTTACAGCAGGATGCGACGCTAGCGTACGCCTCGTCGTAGAGTGAATTGGGTACAGCTGAAT
modifications: amino-C6 dT (Cy5 site, nt 45 from 5' biotin)
In turn, B4 had a Kd in series [3] of 16.2 ± 2.1 nM.

B5: +dT mismatch DNA with dT10 ssDNA tail (74/85 nt) (dsDNA)
DNA 1: B3 DNA 1
DNA 2: TTTTTTTTTTGGTGGACATGAAACTTACAGCAGGATGCGACGCTAGCGTACGCCTCGTCGTAGAGTGAATTGGGTACAGCTGAAT
modifications: amino-C6 dT (Cy5 site)
On to B5, for which the binding result in series [4] is “binds”.

Source of the values: paper PMC3060787.
